Measurements reported in US20240199740A1 (Ablynx, published 2024).

Assays:
[1] = target: T1, recombinant human CD123 protein (R&D Systems, 301-R3/CF) (human, UniProt P26951 19-305); test: SPR (ProteOn XPR36), CD123 immobilized
T1 construct: Bought recombinant His-tagged extracellular domain of human CD123; also called recombinant CD123; in house biotinylated-CD123 recombinant protein; not shown: His tag of the bought protein
T1 sequence: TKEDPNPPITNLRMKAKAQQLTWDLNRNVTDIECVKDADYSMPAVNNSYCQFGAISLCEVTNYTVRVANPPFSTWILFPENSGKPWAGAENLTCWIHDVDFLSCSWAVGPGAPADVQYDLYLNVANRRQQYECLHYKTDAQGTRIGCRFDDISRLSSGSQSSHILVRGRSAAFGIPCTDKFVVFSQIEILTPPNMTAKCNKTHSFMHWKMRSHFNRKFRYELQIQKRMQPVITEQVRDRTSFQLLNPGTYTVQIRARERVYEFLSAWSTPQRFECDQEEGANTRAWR

[2] = target: T2, human CD123 expressed on cells (human, UniProt P26951 19-378); test: flow cytometry competition, CHO Flp-In huCD123 cells, competitor A0110056A10-Alexa647 (0.9 nM)
T2 construct: the cell line is named under assay; also called huCD123; IL-3Rα

[3] = target: T3, cynomolgus CD123 expressed on HEK Flp-In cells (cynomolgus); test: flow cytometry competition, HEK Flp-In cyCD123 cells, competitor A0110056A10-Alexa647 (0.9 nM)
T3 construct: EHH61867.1; also called cyCD123; cyno CD123
T3 chain: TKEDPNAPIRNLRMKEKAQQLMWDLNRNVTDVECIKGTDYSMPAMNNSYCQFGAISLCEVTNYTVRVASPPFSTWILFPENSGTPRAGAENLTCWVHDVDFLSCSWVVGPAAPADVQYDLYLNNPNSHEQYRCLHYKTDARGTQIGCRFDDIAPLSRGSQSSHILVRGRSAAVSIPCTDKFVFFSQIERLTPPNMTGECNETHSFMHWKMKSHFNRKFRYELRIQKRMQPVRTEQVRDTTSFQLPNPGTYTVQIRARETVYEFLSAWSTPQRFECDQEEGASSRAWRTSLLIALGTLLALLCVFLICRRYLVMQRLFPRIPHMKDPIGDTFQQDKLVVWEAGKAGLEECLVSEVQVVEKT

[4] = target: T2, human CD123 expressed on cells; test: flow cytometry competition, MOLM-13 cells, competitor A0110056A10-Alexa647 (0.4 nM)
[5] = target: T2, human CD123 expressed on cells; test: cell-based or functional assay
[6] = target: T2, human CD123 expressed on cells; test: cell-based or functional assay; remark: listed apart in the source
[7] = target: cynomolgus TCR/CD3 expressed on cells (cynomolgus); test: cell-based or functional assay
[8] = target: T2, human CD123 expressed on cells; test: cell-based or functional assay; remark: listed apart in the source
[9] = target: T1, recombinant human CD123 protein (R&D …); test: SPR (ProteOn XPR36), CD123 immobilized; values only indicative (incomplete regeneration)
[10] = target: human CD123 (human, UniProt P26951 19-378); test: cell-based or functional assay

B1: T017000121 (bispecific antibody)
chain: EVQLVESGGGSVQAGGSLRLSCAASGYTIGPYCMGWFRQAPGKEREGVAAINMGGGITYYADSVKGRFTISQDNAKNTVYLLMNSLEPEDTAIYYCAADSTIYASYYECGHGLSTGGYGYDSWGQGTLVTVSSGGGGSGGGGSGGGGSGGGGSGGGGSGGGGSGGGGSEVQLVESGGGLVQAGGSLRLSCAASGITSKINDMGWYRQTPGNYREWVASITATGTTNYRDSVKGRFTISRDNAKSTVYLQMNSLKPEDTTVYYCNTFPPISNFWGQGTLVTVSSGGGGSGGGGSGGGGSGGGGSGGGGSGGGGSGGGGSEVQLVESGGGLVQPGGSLRLSCVASGDVHKINFLGWYRQAPGKEREKVAHISIGDQTDYADSAKGRFTISRDESKNMVYLQMNSLKPEDTAVYFCRAFSRIYPYDYWGQGTLVTVSS
notes: Multispecific Nanobody polypeptide expressed in Pichia; also called cAbLys3(D1E,Q5V,A6E,Q108L)-35GS-A0110056A10-35GS-T0170056G05-FLAG3-HIS6; not shown: C-terminal FLAG3-HIS6 tag
[1]
  Kd: 22 nM
  koff: 0.00086 s⁻¹
  kon: 40000 M⁻¹ s⁻¹
[2]
  IC50: 23 nM
[3]
  IC50: 110 nM
[4]
  IC50: 26 nM

B2: T017000114 (bispecific antibody)
chain: EVQLVESGGGLVQAGGPLRLSCAASGRTFSSYVMGWFRQAPGKEREFVAAIYWSNGKTQYTDSVKGRFTISGDNAKNTVYLQMNSLNPEDTAVYYCVADKDETGFRTLPIAYDYWGQGTLVTVSSGGGGSGGGGSGGGGSGGGGSGGGGSGGGGSGGGGSEVQLVESGGGLVQAGGSLRLSCAASGITSKINDMGWYRQTPGNYREWVASITATGTTNYRDSVKGRFTISRDNAKSTVYLQMNSLKPEDTTVYYCNTFPPISNFWGQGTLVTVSSGGGGSGGGGSGGGGSGGGGSGGGGSGGGGSGGGGSEVQLVESGGGLVQPGGSLRLSCVASGDVHKINFLGWYRQAPGKEREKVAHISIGDQTDYADSAKGRFTISRDESKNMVYLQMNSLKPEDTAVYFCRAFSRIYPYDYWGQGTLVTVSS
notes: Multispecific Nanobody polypeptide expressed in Pichia; also called A0110055F03-35GS-A0110056A10-35GS-T0170056G05-FLAG3-HIS6; not shown: C-terminal FLAG3-HIS6 tag
[1]
  Kd: 2.3 nM
  koff: 0.00019 s⁻¹
  kon: 84000 M⁻¹ s⁻¹
[5]
  % lysis, redirected human T cell mediated killing of KG1a cells, flow cytometry, E:T 10:1: 7%
  EC50 (M), redirected human T cell mediated killing of KG1a cells, flow cytometry, E:T 10:1: 2.4e-10 M
[6]
  % lysis, killing of MOLM-13 cells by non-activated human T cells, E:T ratio 2:1: 10%
  % lysis, killing of MOLM-13 cells by non-activated human T cells, E:T ratio 8:1: 12%
  % lysis, killing of MOLM-13 cells by pre-activated human T cells, E:T ratio 1:2: 18%
  % lysis, killing of MOLM-13 cells by pre-activated human T cells, E:T ratio 2:1: 31%
  % lysis, killing of MOLM-13 cells by pre-activated human T cells, E:T ratio 8:1: 43%
  EC50 (M), killing of MOLM-13 cells by non-activated human T cells, E:T ratio 2:1: 1.9e-09 M
  EC50 (M), killing of MOLM-13 cells by non-activated human T cells, E:T ratio 8:1: 1.4e-09 M
  EC50 (M), killing of MOLM-13 cells by pre-activated human T cells, E:T ratio 1:2: 1e-09 M
  EC50 (M), killing of MOLM-13 cells by pre-activated human T cells, E:T ratio 2:1: 6.8e-10 M
  EC50 (M), killing of MOLM-13 cells by pre-activated human T cells, E:T ratio 8:1: 2.4e-10 M
[7]
  % lysis, redirected cyno T cell mediated killing of KG1a cells, flow cytometry: 7%
  EC50 (M), redirected cyno T cell mediated killing of KG1a cells, flow cytometry: 1.9e-10 M

B3: T017000134 (bispecific antibody)
chain: VQLVESGGGLVQAGGSLRLSCAASGITSKINDMGWYRQTPGNYREWVASITATGTTNYRDSVKGRFTISRDNAKSTVYLQMNSLKPEDTTVYYCNTFPPISNFWGQGTLVTVSSGGGGSGGGGSGGGGSGGGGSGGGGSGGGGSGGGGSEVQLVESGGGLVQPGGSLRLSCVASGDVHKINFLGWYRQAPGKEREKVAHISIGDQTDYADSAKGRFTISRDESKNMVYLQMNSLKPEDTAVYFCRAFSRIYPYDYWGQGTLVTVSSGGGGSGGGGSGGGGSGGGGSGGGGSGGGGSGGGGSEVQLVESGGGLVQAGGPLRLSCAASGRTFSSYVMGWFRQAPGKEREFVAAIYWSNGKTQYTDSVKGRFTISGDNAKNTVYLQMNSLNPEDTAVYYCVADKDETGFRTLPIAYDYWGQGTLVTVSSA
[8]
  % lysis, redirected human T cell mediated killing of MOLM-13 cells, flow cytometry, E:T 10:1: 9%
  EC50 (M), redirected human T cell mediated killing of MOLM-13 cells, flow cytometry, E:T 10:1: 3e-10 M

B4: T017000113 (bispecific antibody)
chain: EVQLVESGGGLVQAGGPLRLSCAASGRTFSSYVMGWFRQAPGKEREFVAAIYWSNGKTQYTDSVKGRFTISGDNAKNTVYLQMNSLNPEDTAVYYCVADKDETGFRTLPIAYDYWGQGTLVTVSSGGGGSGGGGSGGGGSGGGGSGGGGSGGGGSGGGGSEVQLVESGGGSVQAGGSLRLSCAASGYTIGPYCMGWFRQAPGKEREGVAAINMGGGITYYADSVKGRFTISQDNAKNTVYLLMNSLEPEDTAIYYCAADSTIYASYYECGHGLSTGGYGYDSWGQGTLVTVSSGGGGSGGGGSGGGGSGGGGSGGGGSGGGGSGGGGSEVQLVESGGGLVQPGGSLRLSCVASGDVHKINFLGWYRQAPGKEREKVAHISIGDQTDYADSAKGRFTISRDESKNMVYLQMNSLKPEDTAVYFCRAFSRIYPYDYWGQGTLVTVSS
notes: Multispecific Nanobody polypeptide expressed in Pichia; also called A0110055F03-35GS-cAbLys3(D1E,Q5V,A6E,Q108L)-35GS-T0170056G05-FLAG3-HIS6; not shown: C-terminal FLAG3-HIS6 tag
[1]
  Kd: 160 nM
  koff: 0.0032 s⁻¹
  kon: 20000 M⁻¹ s⁻¹

B5: T017000115 (bispecific antibody)
chain: EVQLVESGGGLVQAGGSLRLSCAASGITSKINDMGWYRQTPGNYREWVASITATGTTNYRDSVKGRFTISRDNAKSTVYLQMNSLKPEDTTVYYCNTFPPISNFWGQGTLVTVSSGGGGSGGGGSGGGGSGGGGSGGGGSGGGGSGGGGSEVQLVESGGGSVQAGGSLRLSCAASGYTIGPYCMGWFRQAPGKEREGVAAINMGGGITYYADSVKGRFTISQDNAKNTVYLLMNSLEPEDTAIYYCAADSTIYASYYECGHGLSTGGYGYDSWGQGTLVTVSSGGGGSGGGGSGGGGSGGGGSGGGGSGGGGSGGGGSEVQLVESGGGLVQPGGSLRLSCVASGDVHKINFLGWYRQAPGKEREKVAHISIGDQTDYADSAKGRFTISRDESKNMVYLQMNSLKPEDTAVYFCRAFSRIYPYDYWGQGTLVTVSS
notes: Multispecific Nanobody polypeptide expressed in Pichia; also called A0110056A10-35GS-cAbLys3(D1E,Q5V,A6E,Q108L)-35GS-T0170056G05-FLAG3-HIS6; not shown: C-terminal FLAG3-HIS6 tag
[9]
  Kd: 1.5 nM
  koff: 0.00051 s⁻¹
  kon: 330000 M⁻¹ s⁻¹

B6: T017000128 (bispecific antibody)
chain: DVQLVESGGGLVQPGGSLRLSCVASGDVHKINFLGWYRQAPGKEREKVAHISIGDQTDYADSAKGRFTISRDESKNMVYLQMNSLKPEDTAVYFCRAFSRIYPYDYWGQGTLVTVSSGGGGSGGGGSGGGGSGGGGSGGGGSGGGGSGGGGSEVQLVESGGGLVQAGGSLRLSCAASGITSKINDMGWYRQTPGNYREWVASITATGTTNYRDSVKGRFTISRDNAKSTVYLQMNSLKPEDTTVYYCNTFPPISNFWGQGTLVTVSSA
[10]
  % lysis, redirected cynomolgus T cell mediated killing of KG1a cells, flow cytometry, E:T 10:1: 32%
  % lysis, redirected human T cell mediated killing of KG1a cells, flow cytometry, E:T 10:1: 55%
  EC50 (M), redirected cynomolgus T cell mediated killing of KG1a cells, flow cytometry, E:T 10:1: 2.8e-10 M
  EC50 (M), redirected human T cell mediated killing of KG1a cells, flow cytometry, E:T 10:1: 3.1e-10 M

B7: T017000120 (bispecific antibody)
chain: EVQLVESGGGSVQAGGSLRLSCAASGYTIGPYCMGWFRQAPGKEREGVAAINMGGGITYYADSVKGRFTISQDNAKNTVYLLMNSLEPEDTAIYYCAADSTIYASYYECGHGLSTGGYGYDSWGQGTLVTVSSGGGGSGGGGSGGGGSGGGGSGGGGSGGGGSGGGGSEVQLVESGGGLVQAGGPLRLSCAASGRTFSSYVMGWFRQAPGKEREFVAAIYWSNGKTQYTDSVKGRFTISGDNAKNTVYLQMNSLNPEDTAVYYCVADKDETGFRTLPIAYDYWGQGTLVTVSSGGGGSGGGGSGGGGSGGGGSGGGGSGGGGSGGGGSEVQLVESGGGLVQPGGSLRLSCVASGDVHKINFLGWYRQAPGKEREKVAHISIGDQTDYADSAKGRFTISRDESKNMVYLQMNSLKPEDTAVYFCRAFSRIYPYDYWGQGTLVTVSS
notes: Multispecific Nanobody polypeptide expressed in Pichia; also called cAbLys3(D1E,Q5V,A6E,Q108L)-35GS-A0110055F03-35GS-T0170056G05-FLAG3-HIS6; not shown: C-terminal FLAG3-HIS6 tag
[9]
  Kd: 170 nM
  koff: 0.0025 s⁻¹
  kon: 15000 M⁻¹ s⁻¹
